Biological target: CV3–25 IgG
Experiment: SPR

Sequence of CV3–25 IgG (VH, as listed by the source, chain 1 of 2): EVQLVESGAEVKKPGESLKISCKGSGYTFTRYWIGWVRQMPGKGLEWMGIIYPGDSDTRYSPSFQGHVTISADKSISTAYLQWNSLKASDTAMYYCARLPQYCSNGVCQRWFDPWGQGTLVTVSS
Sequence of CV3–25 IgG (VL, as listed by the source, chain 2 of 2): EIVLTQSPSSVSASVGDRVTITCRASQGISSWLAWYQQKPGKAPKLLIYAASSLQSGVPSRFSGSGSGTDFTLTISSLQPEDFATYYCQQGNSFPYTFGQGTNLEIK

Binder | koff
DKYFKNHTSPDVDLG [SARS-CoV-2 S2 peptide #289 (1153-DKYFKNHTSPDVDLG-1167)] | 0.0319 s⁻¹
DKYFKNHTSPD [shorter version of peptide #289 (1153-DKYFKNHTSPD-1163)] | 0.0761 s⁻¹

Source: doi:10.1101/2021.08.02.454546 (2021)
